Reference: PMC4626089, “In Vitro Mutational Analysis of the β2 Adrenergic Receptor, an In Vivo Surrogate Odorant Receptor” (PLoS ONE, 2015)

Experiment: GFP-labeled filopodia count per OP6 cell
Conditions: glycan lost; control: WT mβ2AR::GFP

Substance: mouse β2-adrenergic-receptor (mβ2AR): No-NxS
- localisation_or_trafficking, other: GFP-labeled filopodia per cell: no change, 13.6 ±8.3 vs 31.8 ±16.2
